Source: US20100293752, “DEVICE FOR DECELERATING THE ROTATION OF A HINGE IN PARTICULAR FOR FURNITURE AND A HINGE PARTICULARLY FOR FURNITURE HAVING SAID DECELERATION DEVICE” (published 2010)

Target: osteopontin (OPN) (Homo sapiens, UniProt P10451 P10451:17-314)
Assay: filter; double-filter nitrocellulose, selection buffer, 37 C; OPN species not specified for this assay
Conditions: label: 5'-32P; stem-loop (predicted, mFold)
Description: The RNA-protein equilibrium dissociation constant (Kd) of OPN-R3 was characterized using the double-filter nitrocellulose filter binding method (Gopinath, Anal. Bioanal. Chem. 387:171 (2007)). For all binding assays, RNAs were dephosphorylated using bacterial alkaline phosphatase (Invitrogen, Carlsbad, Calif.) and 5′-end labeled using T4 polynucleotide kinase (New England Biolabs, Beverly, Mass.) and γ-³²P-ATP (MP Biomedicals, Solon, Ohio). Direct binding assays were carried out by incubating ³²P-labeled RNA at a concentration of less than 0.1 nM and target protein at concentrations ranging from 300 nM to 10 μM in selection buffer at 37° C. The fraction of RNA bound was quantified with a PhosphorImager (Molecular Dynamics, Sunnyvale, Calif.). Raw binding data were corrected for nonspecific background binding of radiolabeled RNA to the nitrocellulose filter.

osteopontin (OPN), sequence (P10451 17-314, one chain of several): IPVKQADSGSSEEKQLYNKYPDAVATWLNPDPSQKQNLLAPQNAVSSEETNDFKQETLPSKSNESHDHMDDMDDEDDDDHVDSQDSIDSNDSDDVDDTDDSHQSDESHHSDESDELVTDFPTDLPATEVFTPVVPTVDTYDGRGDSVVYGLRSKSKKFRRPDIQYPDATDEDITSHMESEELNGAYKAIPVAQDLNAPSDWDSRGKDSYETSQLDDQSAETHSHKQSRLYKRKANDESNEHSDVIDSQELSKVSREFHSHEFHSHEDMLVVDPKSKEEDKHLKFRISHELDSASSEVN

B1: OPN-R3 32P-labelled (ssRNA)
RNA: CGGCCACAGAAUGAAAAACCUCAUCGAUGUUGCAUAGUUG
modifications: 2'-F on all C and U
Question: How did the Kd turn out when B1 was run?
Answer: The Kd was 0.018 µM.
